Test results taken from article PMC5809404, “Luminescence resonance energy transfer between genetically encoded donor and acceptor for protein-protein interaction studies in the molecular chaperone HSP70/HSP90 complexes” (Scientific Reports, 2018).

Assays:
Conditions in all cases: both partners purified
[1] = biological target: T1, LBT-TPR2A (TPR2A domain of yeast Sti1 with an N-terminal lanthanide binding tag) (yeast, UniProt P15705 252-379); assay: LRET (luminescence resonance energy transfer); titration: 20 µM LBT-TPR2A-Tb3+ complex with increasing EGFP-C90 (0-15 µM); normalized LRET Em510 nm/Em490 nm; Scatchard plot; three independent experiments
T1 construct: TPR2A domain of Sti1, yeast, aa 252-379; Loaded with equimolar Tb3+ in the assay; also called LBT-TPR2A (Sti1); LBT-TRP2A; source: E. coli Rosetta (DE3) pLysS, purified (Ni-NTA)
T1 sequence (looked up): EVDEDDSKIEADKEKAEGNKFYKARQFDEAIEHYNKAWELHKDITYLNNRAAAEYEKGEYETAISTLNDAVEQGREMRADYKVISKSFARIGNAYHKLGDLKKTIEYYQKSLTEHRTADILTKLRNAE

[2] = biological target: T2, LBT-TPR2A K229A (TPR2A domain of human HOP, point mutant K229A) (human, UniProt P31948 225-337, K229A); assay: LRET (luminescence resonance energy transfer); equimolar mixture in solution of the LBT-tagged protein loaded with Tb3+ and the EGFP or TagRFP fusion protein (5 µM, or 25 µM for TagRFP-C70); 96-well black plates; excitation 280 nm, 100 µs delay, emission spectrum 450-600 nm
T2 construct: TPR2A domain of HOP (STIP1), human, aa 225-337, with K229A; Loaded with equimolar Tb3+ in the assay; also called TPR2A mutant K229A; source: E. coli Rosetta (DE3) pLysS, purified (Ni-NTA)

[3] = biological target: T3, LBT-TPR2A (TPR2A domain of human HOP, wild type, with an N-terminal lanthanide binding tag) (human, UniProt P31948 225-337); assay: as above
T3 construct: TPR2A domain of HOP (STIP1), human, aa 225-337; Cloned into the XhoI site of pST96/LBT-MCS; Loaded with equimolar Tb3+ in the assay; also called LBT-TPR2A WT; TPR2A WT; source: E. coli Rosetta (DE3) pLysS, purified (Ni-NTA)
T3 sequence (P31948 225-337): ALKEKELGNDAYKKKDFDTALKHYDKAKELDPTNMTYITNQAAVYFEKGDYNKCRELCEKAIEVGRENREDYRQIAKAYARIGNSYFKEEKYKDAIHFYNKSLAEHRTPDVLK

T2 sequence (P31948 225-337 K229A): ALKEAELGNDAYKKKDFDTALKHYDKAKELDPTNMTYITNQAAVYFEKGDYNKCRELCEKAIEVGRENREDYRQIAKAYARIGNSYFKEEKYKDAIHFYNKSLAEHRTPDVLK

B1: EGFP-C90 (last 90 amino acids of human HSP90α fused to the C-terminus of EGFP) (domain or fragment)
chain: not shown
notes: HSP90α, human, the C-terminal 90 amino acids, ending with MEEVD; EGFP in the XhoI site and C90 in the BamHI site of pET15b; source: E. coli Rosetta (DE3) pLysS, purified (Ni-NTA); not shown: EGFP, N-terminal, kept
With B1 the Kd [1] was 4.2 µM, the binding result [2] was “binds” and the binding result [3] was “binds”.
